In the nanobody polyreactivity screen of Harvey et al. (2022):

Experiment: yeast display, Sf9 membrane polyspecificity reagent, FACS + sequencing; frameworks hold sequencing errors
Summary of the method: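 Nanobodies from a synthetic yeast display library (Saccharomyces cerevisiae BJ5465), induced 36–48 hours with galactose, were stained 1 hour at 4 °C with 10% biotinylated, detergent-solubilized Sf9 membrane reagent, enriched on streptavidin microbeads, then FACS-sorted. Anti-HA (expression) and streptavidin (reagent binding) fluorescence set low and high (top ~1%) gates. Polyreactivity labels come from the gate of origin. Genes were colony-PCR amplified, MiSeq 2 × 250 sequenced and filtered by CDR length.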

Row | Sequence | polyreactivity (PSR sort gate)
1 | QVQHVESGGGLVQAGGSLRLSCAASGRIFYCYAMGWYRQAPGKERELVAAISWSGGSTYYADSVKGRFTISRDNAKNTVYLQMNSLKPEDTAVYYCARRYRGGYKYDYWGQGTQVTVSS | high polyreactivity
2 | QVQLVESGGGLVQAGGSLRLICAASGYIFYDYAMGWYRQAPGKERQLVATITSGGRTYADSVKGRFTISRDNAKNTVYLQMNSLKPEDTAVYYCAVDQYGAMDYWGQGTQVTVSS | low polyreactivity
3 | QVQLVESGGGLVQAGGSLRLSCAASGSTFQTNARGWYRQAPGKERELVAAITWSGTSTYADSVKGRFTISRDNAKNPGYFQMNSLKPDDTAVYYCAAPILSFPSPYVQYDYWGLGTQVTVSS | low polyreactivity
4 | QVQLVESGGGLVQAGGSLRLSCAASGIIFHFNDMGWYRQAPRKERELVAAIDSTGSTNYADSVKGRFTISRDNAKNTVYLQMNSLKPEDTAVYYCAVLNHRVDSVLTRYYYWGQGTQVTVSS | low polyreactivity
5 | QVQLLESGGGLVQAGGSLRLSCDASGITFGPNAMGWYRQAPGKERELVATISSSGGSTYYSDSVKGRFTISRDNAKNTVLLQMKSLKPEDTAVYYCNSGFDPYLGAYDYWGQGTQVTVSS | low polyreactivity
6 | QVQIVESGGGLVQAGGSLRISCAASGYIFLPYAMGWYRQAPGKERELVADITSVGRTYYADSVKGRFTISRDNEKNTVYLQMNSLKPEDTAVYYCAKRHSLGYGRSRYSSGYDYWGQGTQVTVSS | high polyreactivity
7 | QVQLVESGGGLDQAGGSLRLSCAASGSTFARNVMGWYRLAPGKERELVAAISWRGGRTYYADSVKGRFTISRDNAKNTVYLQMNSLKPEDTAVYYCAAGRSFRGSYWYEYWGQGTQVTVSS | high polyreactivity
8 | QVQLVESGGGLVQAGGSLRLSCAASGYIFDRYAMGWSRPAPGKERELVAAISGRGGSTYYADSVKGRFTISLDNAKNTVYLQMNSLKPEDTAVYYCNALVQGKEYYWGQGTQVTVSS | high polyreactivity
9 | QVQLVESGGGLVQAGGSLRLSCAASGPIFAYNAMGWYRQAPGKERELVAAISYSGGSTYYADSVKGRFTISRDNAKNTVYLQMNSLKPEDTAVYYCNAVYRYRTYRYDYWGQGTQVTVSS | high polyreactivity
10 | QVQLVESGGGLVQAGGSLRLSCAASGSTFSPYAMGWYRQAPGKERELVANITISGGSTYYADSVKGRFTISRDNAKNTVYLQMNSLKPEDTAVYYCNADSLIRWLFTVVIFDYWGQGTEVTVSS | low polyreactivity
11 | QVQLVESGGGLVQAGGSLRLSCAASGFTFPYYAMGWYRQAPGKERELVAAISWDGGITYYADSVKGRFTISRDNAKNTVYLQMNSLKPEDTAVYYCNVEGWYDYDYWGQGTQVTVSS | high polyreactivity
12 | KVQLVESGGGLVQAGGSLRLSCAASGSTFSTNAMGRYRQAPGKERELVAAISRTGGSTYYADSVKGRFTISRDNAKNNVYLPMNILKPEDTAVYYSARYSYRGTNVRFDYWGQGTQVTLSS | high polyreactivity
13 | QVQLVESGGGLVQAGGSLRLSCAASGSTFYYYAMGWYRQAPGKERELVASISGGGSTSYADSVKGRFTISRDNAKNTVYLQMNSLKPEDNAVYYCNADPSEYDPNYVVVFSPQKYDYCGQGTQVTVSS | low polyreactivity
14 | QVQLVESGGGLVQAGGSLRLSCAASGRTFGPYAKGWYRQAPGKERELVAAITDTGSGTFYADSVKGRFTISRDNAKNTVYFQMNSLKPEDTAVYYCNAVRKYWGQGTEVTVSS | low polyreactivity
15 | QVQLVESGGGLVQAGGSLRLSSAASGSTFYWYAMGWYRQAPGKERELVASITRSGVRTYYADSVKGRFTISRDNAKNTVYLQMNSLKPEDTAVYYCAAERYYFPRSYRYGYWGQGTQVTVSS | low polyreactivity
16 | QVQLVESGGGLVQAGGSLRLSCAASGSTFLNNAMGWYRQAPGKERELVASIRYSSARTYYADTVKGRFTISRDNAKNTVYLQMNSLKPEDTAVYYCAADRWVGYRVYKYDYWGQGTQVTVSS | high polyreactivity
17 | QVQLVESGGGLVQAGGSLRLSCAASGTTFWRYTMGWYRQAPGKERELVAAISTRGGSTTYADSVKGRFTISRDKAKNNVYLQMNSLKPEDTAVYYCNADGYRGYYGRNKSKYDYWGQGTQVTVSS | high polyreactivity
